The target of the assay is (2S)-methylsuccinyl-CoA dehydrogenase from Paracoccus denitrificans, wild type, as used for analytical size-exclusion chromatography (Paracoccus denitrificans). Briefly: SEC; analytical; Superdex 200 Increase 10/300 GL, 100 µl at 2 mg/ml, 0.7 ml/min, 20 mM Tris-HCl pH 7.9, 200 mM NaCl; enzymes incubated with 500 µM FAD for 1 h on ice beforehand; calibrated with a gel filtration standard. For orientation: Size exclusion chromatography separates by hydrodynamic size, large species first.

What is called stoichiometry N is the number of molecules, sites or subunits per partner or assembly.

“(2S)-methylsuccinyl-CoA dehydrogenase from Paracoccus denitrificans, wild type, as used for analytical size-exclusion chromatography (enzyme)” returned a stoichiometry N of 2.

The values are drawn from PMC5798300.
